According to PMC3946817 (Journal of molecular biology, 2013):

B1: peptide P1 (G326AVVYSGSLYFQ) of myoc-OLF (peptide)
peptide: GAVVYSGSLYFQ
B2: peptide P3 (V426ANAFIICGTLYTVSSY) of myoc-OLF (peptide)
peptide: VANAFIICGTLYTVSSY

Target: the molecule itself
Assay: ThT fluorescence + AFM

Row | Protein | binding result
1 | B1 | binds
2 | B2 | binds
